# Values joined by “and” are separate entries in the source; they are usually repeats but may differ in a detail not shown here. Equal entries are not always repeated.
# T1: human OX40 expressed on cells (human, UniProt P43489 29-277)
# T1 construct: also called CD134; TNFRSF4
# T1 sequence: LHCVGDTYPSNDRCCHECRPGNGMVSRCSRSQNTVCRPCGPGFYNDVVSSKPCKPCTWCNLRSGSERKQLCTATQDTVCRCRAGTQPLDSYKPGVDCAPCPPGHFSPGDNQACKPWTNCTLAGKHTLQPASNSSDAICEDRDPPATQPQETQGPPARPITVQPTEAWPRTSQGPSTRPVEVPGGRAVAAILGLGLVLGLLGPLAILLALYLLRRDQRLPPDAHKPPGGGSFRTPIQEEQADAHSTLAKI
# T2: His-tagged human recombinant FcγRIIa 167-His (Sino Biological, cat. no. 10374-H08H1) (human, UniProt P12318 34-218)
# T2 construct: also called FcγRIIa[H]
# T2 sequence (looked up): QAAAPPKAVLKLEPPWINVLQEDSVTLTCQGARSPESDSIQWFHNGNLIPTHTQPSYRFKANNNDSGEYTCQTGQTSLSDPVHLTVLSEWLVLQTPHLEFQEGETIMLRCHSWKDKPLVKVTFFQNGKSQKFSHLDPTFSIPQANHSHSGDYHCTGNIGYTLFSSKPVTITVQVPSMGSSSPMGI
# B1: IgG1-CD134-003-HC6LC2-P329R-E345R (antibody)
# heavy: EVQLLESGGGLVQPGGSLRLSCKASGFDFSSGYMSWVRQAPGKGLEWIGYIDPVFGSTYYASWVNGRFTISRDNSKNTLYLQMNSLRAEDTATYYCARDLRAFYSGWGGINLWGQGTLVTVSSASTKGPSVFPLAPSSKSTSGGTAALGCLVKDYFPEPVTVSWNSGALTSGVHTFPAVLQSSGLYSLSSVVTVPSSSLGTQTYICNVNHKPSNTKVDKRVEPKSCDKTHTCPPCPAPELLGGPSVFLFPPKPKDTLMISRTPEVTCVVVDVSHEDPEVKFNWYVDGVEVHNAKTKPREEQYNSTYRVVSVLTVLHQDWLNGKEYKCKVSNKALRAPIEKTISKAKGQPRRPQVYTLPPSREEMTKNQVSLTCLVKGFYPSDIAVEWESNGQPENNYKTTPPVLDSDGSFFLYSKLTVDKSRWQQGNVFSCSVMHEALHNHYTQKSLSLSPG
# light: AAVLTQSPSSLSASVGDRVTITCQSSQIVVNNNFLSWYQQKPGKAPKLLIYDASNLASGVPDRFSGSGSGTDFTFTISSLQPEDIATYYCLGGYDDDAENAFGGGTKVEIKRTVAAPSVFIFPPSDEQLKSGTASVVCLLNNFYPREAKVQWKVDNALQSGNSQESVTEQDSKDSTYSLSSTLTLSKADYEKHKVYACEVTHQGLSSPVTKSFNRGEC
# notes: humanized; human IgG1 with P329R and E345R (Eu numbering), kappa; also called IgG1-CD134-003-HC6LC2-RR
# Tests used:
# [1] = molecular target: T1, human OX40 expressed on cells; assay: flow cytometry, activated human CD8+ T cells, donor 3
# Method: (§1) Healthy human donor PBMCs were purified essentially as described in Example 7. The cell concentration was adjusted to 2×10⁶ cells per mL (final concentration) in assay medium and plated in 6-well plates (Greiner, cat. no. 657160). PBMCs were stimulated with 0.3 μg/mL anti-CD3 ([…] Technologies, cat. no. 60011) and 0.5 μg/mL anti-CD28 antibodies (BioLegend, cat. no. 302934) and cultured for two days at 37° C., 5% CO₂. Next, the PBMCs were harvested, counted and brought to a concentration of 2×10⁶ cells per mL in FACS buffer 1 (DPBS with 2% heat-inactivated FBS and 2 mM ethylenediaminetetraacetic acid [EDTA]). […] After 60 min at RT, the cells were prepared for flow cytometric analyses. To this end, the cells were washed twice with 150 μL FACS buffer 1 and 30 μL/well cell-surface antibody mix (Table 9) in FACS buffer 1 containing antibody against human Fcγ antibody (Table 9) and fixable viability dye eFluor780 (1:1,500) was added. The staining procedures were carried out at 4° C. for 15-20 min protected from light. Stained cells were washed twice with 120-150 μL FACS buffer 1 (5 min, 460×g, RT) and resuspended in 60-100 μL FACS buffer 1 for direct flow cytometric analyses. Flow cytometric data were acquired on a FACSymphony A3 and analyzed with FlowJo software.
# [2] = molecular target: T1, human OX40 expressed on cells; assay: flow cytometry, activated human CD4+ T cells, donor 3
# Method: as §1
# [3] = molecular target: T3, C1q (from normal human serum) (human, UniProt P02745 23-245; P02746 28-253; P02747 29-245); assay: flow cytometry, C1q from 20 % normal human serum on antibody-opsonised activated CD4+ T cells, FITC anti-C1q
# T3 construct: also called complement factor C1q
# T3 sequence (P02745 23-245 limits assumed, chain 1 of 3): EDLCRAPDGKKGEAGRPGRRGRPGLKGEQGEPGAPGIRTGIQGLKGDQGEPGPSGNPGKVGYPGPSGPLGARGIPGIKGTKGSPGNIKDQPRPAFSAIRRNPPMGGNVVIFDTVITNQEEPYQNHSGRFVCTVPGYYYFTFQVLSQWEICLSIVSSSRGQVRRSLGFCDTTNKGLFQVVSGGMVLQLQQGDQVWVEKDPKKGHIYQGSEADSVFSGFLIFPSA
# T3 sequence (P02746 28-253 limits assumed, chain 2 of 3): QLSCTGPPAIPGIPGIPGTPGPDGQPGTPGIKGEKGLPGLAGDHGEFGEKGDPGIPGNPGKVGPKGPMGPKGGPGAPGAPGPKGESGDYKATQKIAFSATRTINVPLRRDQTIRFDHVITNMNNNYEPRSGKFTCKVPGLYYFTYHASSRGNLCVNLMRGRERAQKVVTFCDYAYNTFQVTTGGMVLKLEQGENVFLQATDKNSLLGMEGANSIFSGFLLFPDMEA
# T3 sequence (P02747 29-245 limits assumed, chain 3 of 3): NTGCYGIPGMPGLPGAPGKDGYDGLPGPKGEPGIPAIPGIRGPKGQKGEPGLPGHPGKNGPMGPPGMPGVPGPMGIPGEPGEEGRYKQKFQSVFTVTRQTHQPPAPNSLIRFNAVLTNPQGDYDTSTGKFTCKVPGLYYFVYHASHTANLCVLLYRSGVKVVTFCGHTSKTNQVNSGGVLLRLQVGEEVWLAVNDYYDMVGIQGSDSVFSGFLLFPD
# Method: Next, cells were washed twice with cold FACS buffer, pelleted, and resuspended in 80 μL FACS buffer supplemented with viability marker TO-PRO™-3 Iodide (Invitrogen, cat. no. T3605; diluted 1:10,000). […] Binding curves were analyzed using nonlinear regression analysis (sigmoidal dose-response with variable slope) using GraphPad Prism software. Binding of OX40 antibodies to the activated T cells was assessed after the incubation step with serial dilutions of antibodies. […] Next, cells were washed twice with cold FACS buffer, pelleted, and resuspended in 80 μL FACS buffer supplemented with viability marker TO-PRO-3 Iodide (diluted 1:10,000). Antibody binding was analyzed by flow cytometry on a BD FACSCelesta Cell Analyzer. Binding curves were analyzed using nonlinear regression analysis (sigmoidal dose-response with variable slope) using GraphPad Prism software.
# [4] = molecular target: T1, human OX40 expressed on cells; assay: flow cytometry, activated human CD4+ T cells, without sOX40L, n=3
# [5] = molecular target: T1, human OX40 expressed on cells; assay: flow cytometry, activated human CD8+ T cells, with 2 µg/mL sOX40L, n=3
# Method: Stimulated PBMCs were pelleted, resuspended in FACS buffer 2 (DPBS with 2% heat-inactivated FBS [Sigma-Aldrich, cat. no. F7524] and 2 mM EDTA [Sigma-Aldrich, cat. no. 03690]), and seeded (100,000 cells/well) in round-bottom 96-well plates (VWR International GmbH, cat. no. 734-197). […] Next, cells were washed twice in FACS buffer, and incubated with 30 μL of the antibody panel described in Table 11 diluted in FACS buffer 2 containing 1:1,500 Fixable Viability Stain eFluor 780 at 4° C. for 20 min, protected from light. The cells were subsequently washed twice with 120-150 μL FACS buffer 2 and measured on a BD FACSCelesta flow cytometer using a BD High Throughput sampler and subsequent analysis was done using FlowJo software.
# [6] = molecular target: T4, His-tagged human recombinant FcγRIIIa 176-Val (Sino Biological, cat. no. 10389-H27H1-B) (human, UniProt P08637 17-208); assay: SPR, His-tagged FcγR captured on anti-His chip, antibody injected
# T4 construct: also called FcγRIIIa[V]
# T4 sequence (P08637 17-208 F176V limits assumed): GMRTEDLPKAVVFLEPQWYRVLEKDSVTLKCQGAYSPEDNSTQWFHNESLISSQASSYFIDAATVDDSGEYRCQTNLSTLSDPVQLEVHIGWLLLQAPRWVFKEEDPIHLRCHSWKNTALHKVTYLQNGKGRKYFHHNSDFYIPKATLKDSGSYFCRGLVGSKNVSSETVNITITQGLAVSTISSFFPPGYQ
# Method: (§2) Biacore Series S Sensor Chips CM5 (Cytiva, cat. no. 29104988) were covalently coated with anti-His antibody using amine-coupling and His capture kits (Cytiva, cat. no. BR100050 and cat. no. 29234602) according to the manufacturer's instructions. […] After three start-up cycles of HBS-EP+ buffer, antibody samples were injected for 12 cycles per sample to generate binding curves using antibody concentration ranges of 0 to 3,000 nM for FcγRIa and 0 to 10,000 nM for the other FcγRs.
# (§3) Dissociation from the anti-His-coated surface was performed by regeneration of the surface using 10 mM Glycine-HCl pH 1.5 (Cytiva, cat. no. BR100354).
# [7] = molecular target: T2, His-tagged human recombinant FcγRIIa …; assay: as above
# Method: as §2, §3
# [8] = molecular target: T5, His-tagged human recombinant FcγRIIIa 176-Phe (Sino Biological, cat. no. 10389-H27H) (human, UniProt P08637 17-208); assay: as above
# T5 construct: also called FcγRIIIa[F]
# T5 sequence (P08637 17-208 limits assumed): as the sequence (P08637 17-208 F176V limits assumed) above, with V160F counted along it
# Method: as §2, §3
# [9] = molecular target: His-tagged human recombinant FcγRIa (Sino Biological, cat. no. 10256-H08S-B) (human, UniProt P12314 16-288); assay: as above
# His-tagged human recombinant FcγRIa (Sino Biological, cat. no. 10256-H08S-B), sequence (P12314 16-288 limits assumed, stated change not applied): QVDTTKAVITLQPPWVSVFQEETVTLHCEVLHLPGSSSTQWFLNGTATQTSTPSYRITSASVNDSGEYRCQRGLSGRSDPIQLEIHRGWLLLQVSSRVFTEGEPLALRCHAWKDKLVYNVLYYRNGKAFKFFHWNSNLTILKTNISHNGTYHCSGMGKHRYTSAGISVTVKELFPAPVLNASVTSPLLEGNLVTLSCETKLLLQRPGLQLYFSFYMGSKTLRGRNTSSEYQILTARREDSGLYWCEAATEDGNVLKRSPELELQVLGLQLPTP
# Method: as §2, §3
# [10] = molecular target: T1, human OX40 expressed on cells; assay: flow cytometry, activated human CD4+ T cells, donor 2
# Method: as §1
# [11] = molecular target: T1, human OX40 expressed on cells; assay: flow cytometry, activated human CD4+ T cells, mean of 3 donors
# Method: as §1
binder,measurement,setting,value
B1,EC50,[1],0.0217 µg/mL
same,EC50,[2],0.0187 µg/mL
same,binding result,[3],no binding (tested: 30 µg/mL antibody)
same,EC50,[4],0.019 µg/mL and 0.13 nM
same,EC50,[5],0.038 µg/mL and 0.254 nM
same,binding result,[6],"no binding (tested: 10,000 nM)"
same,binding result,[7],"no binding (tested: 10,000 nM)"
same,binding result,[8],"no binding (tested: about 4,000 nM)"
same,binding result,[9],binds
same,EC50,[10],0.0167 µg/mL
same,EC50,[11],0.0209 µg/mL
